Several values for one entry are separate records, joined by “and”; a condition that tells them apart may be missing. Equal values may be shown once. Entries after “also recorded” stand apart in the source; their conditions may differ.
Experiments:
[1] = system: CC(C)Cc1ccc([C@H](C)C(=O)O)cc1; test: purified protein, by the assay type; conditions: other: purified enzyme; mean of three determinations; pH 7.5; 25.0 °C
[2] = system: CC(C)Cc1ccc([C@@H](C)C(=O)O)cc1; test: purified protein, by the assay type; conditions: other: purified enzyme; mean of three determinations; pH 7.5; 25.0 °C
[3] = system: Nc1ncnc2c1ncn2[C@@H]1O[C@H](COP(=O)(O)OP(=O)(O)OP(=O)(O)O)[C@@H](O)[C@H]1O; test: purified protein, by the assay type; conditions: other: purified enzyme; mean of three determinations; pH 7.5; 25.0 °C
[4] = system: NC(=O)C1=CN([C@@H]2O[C@H](COP(=O)(O)OP(=O)(O)OC[C@H]3O[C@@H](n4cnc5c(N)ncnc54)[C@H](OP(=O)(O)O)[C@@H]3O)[C@@H](O)[C@H]2O)C=CC1; test: purified protein, by the assay type; conditions: other: purified enzyme; mean of three determinations; pH 7.5; 25.0 °C
[5] = target: T1, carboxylic acid reductase (Nocardia iowensis, UniProt Q6RKB1); test: 13C NMR study of benzoyl-AMP reduction by purified carboxylic acid reductase; type: biochemical, Nocardia sp. NRRL 5646; conditions: 1.4 mM benzoyl-AMP, 2.0 mM NADPH, 20 min. at 20° C.
T1 construct: isolated and substantially purified from Nocardia sp. strain NRRL 5646; endogenous in cells; host or cells: Nocardia sp; NRRL 5646, benzoate-induced culture; enzyme purified by Mono-Q, Reactive Green 19 agarose and hydroxyapatite chromatography
Protocol: Using carboxyl-^13 C labeled benzoyl-AMP, synthesized as described in Example 1, the reduction of benzoyl-AMP to benzaldehyde with the substantially purified carboxylic acid reductase from Nocardia sp. NRRL 5646 was investigated with ^13 C NMR spectroscopy (see, FIG. 1). The substantially purified carboxylic acid reductase from Nocardia sp. NRRL 5646 and all other reagents were prepared or obtained in Example 1.
A 10 μl sample (0.05 units) of the substantially purified carboxylic acid reductase was added to initiate the reaction. A control sample was prepared containing everything except the enzyme. After 20 min. incubation at 20° C., the samples were subjected to NMR analysis. For ^13 C NMR spectroscopy, […] D2 O was added as the locking solvent, and […] of dioxane was added as an internal standard (67.4 ppm). NMR spectra were obtained with a Bruker WM 360-MHZ high-field spectrometer equipped with an IBM Aspect-2000 processor.

[6] = target: T1, carboxylic acid reductase; test: Enzymatic reduction of vanillic acid to vanillin by purified carboxylic acid reductase; type: biochemical, Nocardia sp. NRRL 5646; conditions: with ATP and NADPH, purified enzyme
Protocol: The reaction mixture was incubated at 30° C. with gentle shaking for 24 hours, after which the entire reaction mixture was loaded onto a solid phase extraction cartridge (Chem Elut 1200, 200 ml aqueous solution capacity). After 5 min. of equilibration, the cartridge was washed with 2×100 ml of hexane, then washed again with 2×100 ml of dichloromethane (concentrated to less than 2 ml).
The extract was then transferred to a vial and the solvent was removed with a stream of nitrogen to give about 8 mg of the purified vanillin end product.
Mass spectrometry, ^1 H, and ^13 C NMR data confirmed that this compound was vanillin. The yield was determined to be 96% with UV spectrophotometric assay at 340 nm.

[7] = target: T1, carboxylic acid reductase; test: Rate of carboxylic acid reduction after o-benzylation of vanillic acid (unpublished data); type: biochemical, Nocardia sp. NRRL 5646; conditions: substrate concentration 5 mM
[8] = Stability of the purified enzyme in buffer; type: physicochemical; conditions: 50 mM pH 7.5 Tris-HCl buffer, 10% glycerol, 8 hr at 4° C.
Protocol: Properties of the carboxylic acid reductase (aryl-aldehyde oxidoreductase).Inclusion of 10% glycerol in all chromatographic buffers was used to stabilize the enzyme. Nevertheless, the purified enzyme in 50 mM pH 7.5 Tris-HCl buffer, containing 10% glycerol, lost nearly […] of its activity in 8 hr at 4° C.

[9] = target: carboxylic acid reductase (aryl aldehyde oxidoreductase) (Nocardia iowensis, UniProt Q6RKB1); test: Standard aryl-aldehyde oxidoreductase assay: specific activity of the purified enzyme; type: biochemical, Nocardia sp. NRRL 5646; parameters: isolated and substantially purified from Nocardia sp. strain NRRL 5646; endogenous in cells; host or cells: Nocardia sp; NRRL 5646, benzoate-induced culture; enzyme purified by Mono-Q, Reactive Green 19 agarose and hydroxyapatite chromatography; conditions: after hydroxyapatite step
Protocol: Enzyme assay. The standard aryl-aldehyde oxidoreductase assay solution contained 0.15 mM […], 1 mM ATP, and 5 mM sodium benzoate, 10 mM MgCl2 and 0.01 to 0.3 units of enzyme in 50 mM Tris-HCl buffer in a final volume of 0.7 ml. The reference cuvette contained all components except for benzoate. Enzyme reactions were initiated by adding enzyme, and they were monitored by recording the absorption decrease at 340 nm at 25° C. with a Shimadzu 160 spectrophotometer. One unit of the carboxylic acid reductase (aryl-aldehyde oxidoreductase) is defined as the amount of enzyme that catalyzes the reduction of 1 μmol benzoate to benzaldehyde per min. under standard assay conditions.
Protein assay. The concentration of protein was measured by the Bradford protein microassay (Bradford, Anal. Biochem. 72:248-254 (1976)), with bovine serum albumin as the standard.

T1 sequence (Q6RKB1 whole entry): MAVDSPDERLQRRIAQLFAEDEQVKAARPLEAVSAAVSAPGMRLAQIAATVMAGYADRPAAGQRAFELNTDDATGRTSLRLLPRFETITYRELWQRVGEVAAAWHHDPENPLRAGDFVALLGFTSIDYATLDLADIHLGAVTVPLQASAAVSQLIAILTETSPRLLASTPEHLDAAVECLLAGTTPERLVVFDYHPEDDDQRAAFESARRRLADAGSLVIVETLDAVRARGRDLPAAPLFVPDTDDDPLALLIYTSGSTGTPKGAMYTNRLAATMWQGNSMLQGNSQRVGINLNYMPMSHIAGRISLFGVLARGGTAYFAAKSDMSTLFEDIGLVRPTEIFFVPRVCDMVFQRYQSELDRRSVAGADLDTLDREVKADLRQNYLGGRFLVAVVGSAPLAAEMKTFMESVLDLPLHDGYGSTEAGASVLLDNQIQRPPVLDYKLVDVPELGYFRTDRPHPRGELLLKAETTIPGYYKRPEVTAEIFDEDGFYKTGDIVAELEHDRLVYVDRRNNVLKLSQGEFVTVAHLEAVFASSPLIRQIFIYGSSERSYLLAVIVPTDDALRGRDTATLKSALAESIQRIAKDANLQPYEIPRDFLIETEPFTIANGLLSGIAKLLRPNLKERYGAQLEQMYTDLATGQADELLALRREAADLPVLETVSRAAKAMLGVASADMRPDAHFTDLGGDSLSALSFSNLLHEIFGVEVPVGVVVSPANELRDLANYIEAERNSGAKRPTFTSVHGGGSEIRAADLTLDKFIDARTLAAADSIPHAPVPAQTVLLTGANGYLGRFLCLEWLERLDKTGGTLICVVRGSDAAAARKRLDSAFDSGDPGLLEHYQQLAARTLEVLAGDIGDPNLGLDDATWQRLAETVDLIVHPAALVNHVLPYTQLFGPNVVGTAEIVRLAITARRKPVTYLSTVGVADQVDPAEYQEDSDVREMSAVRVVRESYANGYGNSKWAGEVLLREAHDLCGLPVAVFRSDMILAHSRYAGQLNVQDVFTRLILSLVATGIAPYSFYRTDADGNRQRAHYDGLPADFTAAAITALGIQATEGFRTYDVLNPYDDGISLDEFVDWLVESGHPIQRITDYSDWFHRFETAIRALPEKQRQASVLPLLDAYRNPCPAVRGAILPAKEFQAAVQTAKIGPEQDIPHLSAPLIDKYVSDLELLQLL
carboxylic acid reductase (aryl aldehyde oxidoreductase), sequence (Q6RKB1 whole entry): as above

Which Km [1] does the source give for “carboxylic acid reductase (aryl-aldehyde oxidoreductase) (Nocardia iowensis)” here?
The Km was 155 µM.

And the Km [2]?
Its Km is 34.5 µM.

What about the Km [3] of the same molecule?
Its Km is 57.3 µM and 29.3 ± 3.1 µM.

What about the Km [4] of the same molecule?
The Km was 29.3 µM and 57.3 ± 12.5 µM.

Which “reduction of benzoyl-AMP to benzaldehyde” value [5] does the source give for `Nc1ncnc2c1ncn2[C@@H]1O[C@H](COP(=O)(O)OC(=O)c2ccccc2)[C@@H](O)[C@H]1O` [benzoyl AMP] here?
The value was “completely reduced; also recorded: quantitatively reduced”.

What does the source list for `COc1cc(C(=O)O)ccc1O` [vanillic acid, 4-hydroxy-3-methoxybenzoic acid]?
transformation from vanillic acid to vanillin [6]: quantitative; increase in the rate of carboxylic acid reduction as a result of o-benzylation [7]: more than 15 fold

B1: Purified carboxylic acid reductase: carboxylic acid reductase (aryl-aldehyde oxidoreductase) isolated and purified from Nocardia sp. strain NRRL 5646 (protein, UniProt Q6RKB1 2-1174, looked up)
Carboxylic acid reductase: AVDSPDERLQRRIAQLFAEDEQVKAARPLEAVSAAVSAPGMRLAQIAATVMAGYADRPAAGQRAFELNTDDATGRTSLRLLPRFETITYRELWQRVGEVAAAWHHDPENPLRAGDFVALLGFTSIDYATLDLADIHLGAVTVPLQASAAVSQLIAILTETSPRLLASTPEHLDAAVECLLAGTTPERLVVFDYHPEDDDQRAAFESARRRLADAGSLVIVETLDAVRARGRDLPAAPLFVPDTDDDPLALLIYTSGSTGTPKGAMYTNRLAATMWQGNSMLQGNSQRVGINLNYMPMSHIAGRISLFGVLARGGTAYFAAKSDMSTLFEDIGLVRPTEIFFVPRVCDMVFQRYQSELDRRSVAGADLDTLDREVKADLRQNYLGGRFLVAVVGSAPLAAEMKTFMESVLDLPLHDGYGSTEAGASVLLDNQIQRPPVLDYKLVDVPELGYFRTDRPHPRGELLLKAETTIPGYYKRPEVTAEIFDEDGFYKTGDIVAELEHDRLVYVDRRNNVLKLSQGEFVTVAHLEAVFASSPLIRQIFIYGSSERSYLLAVIVPTDDALRGRDTATLKSALAESIQRIAKDANLQPYEIPRDFLIETEPFTIANGLLSGIAKLLRPNLKERYGAQLEQMYTDLATGQADELLALRREAADLPVLETVSRAAKAMLGVASADMRPDAHFTDLGGDSLSALSFSNLLHEIFGVEVPVGVVVSPANELRDLANYIEAERNSGAKRPTFTSVHGGGSEIRAADLTLDKFIDARTLAAADSIPHAPVPAQTVLLTGANGYLGRFLCLEWLERLDKTGGTLICVVRGSDAAAARKRLDSAFDSGDPGLLEHYQQLAARTLEVLAGDIGDPNLGLDDATWQRLAETVDLIVHPAALVNHVLPYTQLFGPNVVGTAEIVRLAITARRKPVTYLSTVGVADQVDPAEYQEDSDVREMSAVRVVRESYANGYGNSKWAGEVLLREAHDLCGLPVAVFRSDMILAHSRYAGQLNVQDVFTRLILSLVATGIAPYSFYRTDADGNRQRAHYDGLPADFTAAAITALGIQATEGFRTYDVLNPYDDGISLDEFVDWLVESGHPIQRITDYSDWFHRFETAIRALPEKQRQASVLPLLDAYRNPCPAVRGAILPAKEFQAAVQTAKIGPEQDIPHLSAPLIDKYVSDLELLQLL
For B1, which loss of activity [8] is on record?
The loss of activity was ~250%.

And the specific activity [9]?
Its specific activity is 5.9 units/mg of protein.

Reference: patent US6261814A, “Carboxylic acid reductase, and methods of using same” (University of Iowa Research Foundation, priority 1998, dated 2001)
